± gives the standard deviation.
Assay: protein stability index of a GFP-peptide fusion (GPS, HEK-293T) (PSI 1-6); higher = more stable
[1] = treatment: DMSO, c terminus: a fixed tail appended
[2] = treatment: MLN4924 1 uM, 8 h, c terminus: a fixed tail appended
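Also: 24-mer peptide tiles fused after GFP, lentivirally expressed, FACS-sorted into six equal bins by GFP/DsRed ratio, decoded by Illumina sequencing, PSI is the read-weighted mean bin number.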

| Sequence | protein stability index [1] | protein stability index [2] | protein stability index (treatment: DMSO, c terminus: native) | protein stability index (treatment: MLN4924 1 uM, 8 h, c terminus: native) |
| --- | --- | --- | --- | --- |
| PSASLGKASSRKPFGILSPNVLCS [FBXO34] | 2.71 ± 0.23 | 2.8 ± 0.11 |  |  |
| PSIYHTMASPCSAMAYHHDSRRIF [WDFY1] | 2.14 ± 0.72 | 2.18 ± 0.4 |  |  |
| PSLQAWNDAPCDKTFLFICKRPYV [CD207] | 2.17 ± 0.28 | 2.2 ± 0.21 |  |  |
| PSSYNCSQSILPLEHGSIYIPSSY [ESR2] | 2.17 ± 0.2 | 2.26 ± 0.26 |  |  |
| PSVPDNAELVLLTLGQAWQGYVSD [DFFB] | 2.64 ± 0.52 | 2.84 ± 0.32 |  |  |
| PSVYHAMPSPCSCMSFNPETRRLS [WDFY2] | 2.57 ± 0.36 | 2.88 ± 0.41 |  |  |
| PTCPVCKDRASPADLRTNHTLNNL [TRIM35] | 3.62 ± 0.21 | 3.9 ± 0.46 |  |  |
| PTLSCEKYLTYDQLRKQKKKTGKS [ELOA2] | 3.98 ± 0.19 | 4.57 ± 0.24 |  |  |
| PVPVIVSNFNYFYHRETEGEEQSQ [KCNA3] | 3.81 ± 0.34 | 4.15 ± 0.28 |  |  |
| PVVKLLHNRSNNKYSYTSTSDDNL [KCTD13] | 3.82 ± 0.16 | 3.94 ± 0.19 |  |  |
| PWGFRLQGGKDFNVPLSISRLTPG [PDLIM7] | 2.66 ± 0.18 | 2.66 ± 0.29 |  |  |
| QALGEHLKLRQQVIATATVYFKRF [CCNC] | 2.54 ± 0.55 | 2.48 ± 0.42 |  |  |
| QALLKENRLLQEENRTLQVLRAEH [CBY2] | 4.02 ± 0.2 | 4.2 ± 0.065 |  |  |
| QAMFDTLGIPKSTTSDIPHMLNQV [FAM98B] | 3.18 ± 0.23 | 3.23 ± 0.26 |  |  |
| QCSNRIGSMKIKSSWDIDGRATKR [FBXO34] | 3.28 ± 0.2 | 3.52 ± 0.28 |  |  |
| QDIENALSTSSSPSGTPTNLRRHV [DLC1] | 4.96 ± 0.17 | 4.94 ± 0.2 |  |  |
| QDLCCRAVVSCTPVHLVDKLPLPI [RAB40B] | 2.4 ± 0.27 | 2.09 ± 0.56 |  |  |
| QEDAPMIEPLVPEEKMETKTESSG [EPB41L3] | 5.69 ± 0.17 | 5.63 ± 0.13 |  |  |
| QEDKALWEEEKALWVEERALLEGE [CCDC70] | 5.09 ± 0.3 | 5.17 ± 0.33 |  |  |
| QEEEQAETPMAPVPLGPLGETYCE [TRIM15] | 5.4 ± 0.17 | 5.57 ± 0.16 |  |  |
| QEENKSLREENKALREENRMLSKE [CBY2] | 5.56 ± 0.47 | 5.587 ± 0.023 |  |  |
| QELIQEAKPRATWTLKLDGNLQLD [RTP4] | 3.886 ± 0.038 | 3.82 ± 0.32 |  |  |
| QEQVAGGEAQPGLPQEDPSTSQGC [FEM1A] | 5.34 ± 0.12 | 5.42 ± 0.43 |  |  |

| Sequence | protein stability index [1] | protein stability index [2] | protein stability index (treatment: DMSO, c terminus: native) | protein stability index (treatment: MLN4924 1 uM, 8 h, c terminus: native) |
| --- | --- | --- | --- | --- |
| QEVFEPPHYELCTLRGTGATADFA [NETO1] | 3.91 ± 0.28 | 3.88 ± 0.26 |  |  |
| QEYAAKIINTKKLSARDHQKLERE [CAMK2A] | 4.71 ± 0.22 | 4.78 ± 0.19 |  |  |
| QFEANGYFFKRPYPFVLFYSKFHG [KMT2E] |  | 2.91 ± 1.9 |  |  |
| QFRMAQEEARRNRLMRDMAQLRLQ [SMG5] | 2.95 ± 0.21 | 3.25 ± 0.26 |  |  |
| QGLLGRSPPTRPVPGHRSERAIRT [SPRY1] | 4.51 ± 0.21 | 4.47 ± 0.2 |  |  |
| QIVTKKIDLSHVTSKCGSLKNIRH [MAP2] | 2.67 ± 0.039 | 2.71 ± 0.2 |  |  |
| QIYHCTKRKEEECSTTDHPYKKPY [TBX5] | 3.92 ± 0.095 | 4.25 ± 0.26 |  |  |
| QKGLGGAMVWALDLDDFAGFSCNQ [CHIT1] | 2.31 ± 0.32 | 2.42 ± 0.16 |  |  |
| QKSVTRSCLLEEEEESGEEAAEAM [POP5] | 5.37 ± 0.42 | 5.47 ± 0.27 |  |  |
| QLDSRYWRITNAKGDVEEVQGPGV [FBXO3] | 4.14 ± 0.22 | 4.22 ± 0.14 |  |  |
| QLEVTCTPYLKETLNSIWNVEDHI [POMT2] | 2.51 ± 0.32 | 2.44 ± 0.34 |  |  |
| QLLEDAILIIQGVLSDINLKKGES [NET1] | 3.37 ± 0.24 | 3.77 ± 0.19 |  |  |
| QLLTLRELEMIGFIENNVSKLSLL [TRIP13] | 2.51 ± 0.28 | 2.66 ± 0.52 |  |  |
| QLRSDVCTPGGTTIYGLHALEQGG [PYCR3] | 3.69 ± 0.23 | 3.61 ± 0.51 |  |  |
| QLSMLPHLADLVSYSIQKVIGFAK [VDR] | 2.28 ± 0.2 | 2.48 ± 0.5 |  |  |
| QLSPNKHFSLRVQSRANGVKYPEL [PCDHGA10] | 3 ± 0.18 | 3.02 ± 0.23 |  |  |
| QNEEYLLTYINEDRISTTFRLTTL [PLK2] | 2.6 ± 0.37 | 2.29 ± 0.58 |  |  |
| QNQEYKMLLDIKTRLEQEIATYRS [KRT15] | 3.31 ± 0.18 | 3.46 ± 0.37 |  |  |
| QPCFFQDISMEIPQEFQKTVSTMY [SCAMP3] | 2.55 ± 0.4 | 2.64 ± 0.23 |  |  |
| QPGPSGAPAQRATRGFLRSPSSDL [RETREG3] | 3.97 ± 0.24 | 4.27 ± 0.23 |  |  |
| QPGTNCALAIKVNLCGHWYYSKAC [ADAMTSL2] | 2.7 ± 0.72 | 2.75 ± 0.45 |  |  |
| QPKEKIQAIIESCSRQFPEFQERA [NOL4L] | 3.7 ± 0.36 | 3.85 ± 0.1 |  |  |
| QPLEGGTPNSAGGPGAHILRRKSP [ADAMTS4] | 5.34 ± 0.43 | 5.37 ± 0.17 |  |  |

| Sequence | protein stability index [1] | protein stability index [2] | protein stability index (treatment: DMSO, c terminus: native) | protein stability index (treatment: MLN4924 1 uM, 8 h, c terminus: native) |
| --- | --- | --- | --- | --- |
| QPPNAEEESGSSSASEEEDTKPKP [INTS3] | 5.72 ± 0.23 | 5.65 ± 0.21 |  |  |
| QPRKGGADWLGLKDEDLDLFPASP [FBF1] | 4.71 ± 0.1 | 4.79 ± 0.17 |  |  |
| QQQVKTNGAGVTVLRREISELRTK [FBXO28] | 4.32 ± 0.19 | 4.44 ± 0.32 |  |  |
| QRAEMLPKTSGTRATSLGRPEEEE [CPOX] | 5.47 ± 0.37 | 5.49 ± 0.28 |  |  |
| QRAFSIQTPEQYYFCYKAILEFAE [PTPN9] | 2.16 ± 0.29 | 2.16 ± 0.35 |  |  |
| QRELHSHVTNAMVLVNVLQAIYVI [DHCR7] | 2.61 ± 0.59 | 2.78 ± 0.61 |  |  |
| QRLIKKVQEAVLDKWVNDPHRMDR [GOLPH3] | 2.34 ± 0.19 | 2.27 ± 0.2 |  |  |
| QRVKLKLWDTSGQGRFCTIFRSYS [RAB40A] | 2.3 ± 0.29 | 2.14 ± 0.33 |  |  |
| QSSPSFAEKCLDFLVDMFNDEIEE [INTS4] | 2.87 ± 0.1 | 3.18 ± 0.2 |  |  |
| QVADVPEKPRVPAFACQVAGCCQV [ZNF511] | 3.44 ± 0.16 | 3.61 ± 0.35 |  |  |
| QVEIFSTNPDLYPVRRIDGLTDVS [IQUB] | 3.71 ± 0.29 | 3.68 ± 0.27 |  |  |
| QVGRGLRYIHSMSLVHMDIKPSNI [WEE1] | 2.15 ± 0.3 | 2.08 ± 0.25 |  |  |
| QVQLGLRCCGAASYQDWQQNLYFN [TSPAN10] | 3.12 ± 1.1 | 2.81 ± 0.91 |  |  |
| QYLRLPDAPEQRLRVMTTNIRSAR [ELOA2] | 3.58 ± 0.31 | 3.9 ± 0.16 |  |  |
| QYSSHHTAEKRKRLGELFNPYYDP [CHGB] | 3.13 ± 0.25 | 3.28 ± 0.2 |  |  |
| QYTVPGTEGVTQLKLTVVEDVTVG [ZFYVE21] | 3.86 ± 0.19 | 3.98 ± 0.41 |  |  |
| RAESTANAGQSDNRSLAEACSEGD [ANKRD17] | 5.55 ± 0.24 | 5.53 ± 0.16 |  |  |
| RAFLQTYSHEVSLTADSRKSHLIF [PCDHGA10] | 2.2 ± 0.34 | 2.08 ± 0.24 |  |  |
| RAKDLVELDPEVEGTKPSATEMIW [GOLPH3L] | 4.07 ± 0.23 | 4.13 ± 0.45 |  |  |
| RALHWAAYMGHLDVVALLINHGAE [ANKRD44] | 2.56 ± 0.43 | 3.12 ± 0.66 |  |  |
| RAPQLHLEYRFYEQLGSGDGIPQV [CSNK1G3] | 3.36 ± 0.21 | 3.34 ± 0.1 |  |  |
| RARIAKGLRLCRPKAKAKAKAKAK [RPL29] | 4.16 ± 0.48 | 4 ± 0.38 |  |  |
| RASALLASCSKNCTNSPAIVRFSG [FBXO34] | 2.24 ± 0.24 | 2.59 ± 0.19 |  |  |

| Sequence | protein stability index [1] | protein stability index [2] | protein stability index (treatment: DMSO, c terminus: native) | protein stability index (treatment: MLN4924 1 uM, 8 h, c terminus: native) |
| --- | --- | --- | --- | --- |
| RCEELEDARYKLHHHLHKTLREIT [TEKT4] | 2.81 ± 0.29 | 2.8 ± 0.25 |  |  |
| RDAGATPSAAGAPASAPGEPRQRR [ANKRD9] | 5.57 ± 0.27 | 5.59 ± 0.19 |  |  |
| RDFRPTDQEEIKTLERYMCSRFFI [TENT5C] | 2.63 ± 0.39 | 2.71 ± 0.17 |  |  |
| RDSAYQSITHYRPVSASRSSLDLS [EMD] | 3.41 ± 0.18 | 3.58 ± 0.22 |  |  |
| REAQQYSEALASTRILKHSPESSR [GLIPR2] | 4.92 ± 0.27 | 4.92 ± 0.3 |  |  |
| REFDVRQTPQVNINPFTPDSLLLH [WEE1] | 3.41 ± 0.47 | 3.52 ± 0.15 |  |  |
| REHRVRRIHVRRHITHDERPHGQQ [KCTD13] | 4.36 ± 0.21 | 4.45 ± 0.29 |  |  |
| REQSRLTSCLKKREEMKLKECVSI [TNFSF13B] | 3.62 ± 0.11 | 3.81 ± 0.24 |  |  |
| RERKKLVLENLEDSCVLTGPDDSL [TRIB3] | 4.91 ± 0.26 | 4.95 ± 0.36 |  |  |
| RFCLVPSMEGVRWAFSCGTWLPSR [AASDHPPT] | 2.48 ± 0.79 | 2.32 ± 0.056 |  |  |
| RFGDRMFYKDWWNSTSYSNYYRTW [SOAT1] | 1.92 ± 0.23 | 2.04 ± 0.34 |  |  |
| RFLRMLLRLADEFGVAVVITNQVV [RAD51] | 2.46 ± 0.45 | 2.45 ± 0.84 |  |  |
| RGQARRLAPNFRWAIPNRQINDGM [BEX3] | 3.1 ± 0.24 | 3.03 ± 0.47 |  |  |
| RHMEAVKAQLLEQAQGQLRELLDR [SOAT2] | 3.07 ± 0.37 | 3.08 ± 0.086 |  |  |
| RIHVRRHITHDERPHGQQIVFKD [KCTD13] |  |  | 4.31 ± 0.24 | 4.33 ± 0.32 |
| RILVGNRLHLAFKRQVPTEQARAY [RAB40C] | 2.29 ± 0.26 | 2.56 ± 0.27 |  |  |
| RKDHLKNHLQTHDPNKMAFGCEEC [PLAGL1] | 4.77 ± 0.16 | 4.93 ± 0.54 |  |  |
| RKNPYPTKGEKIMLAIITKMTLTQ [IRX6] | 2.61 ± 1 | 2.74 ± 0.62 |  |  |
| RKRMKMDKTCSKTKNKSKHALRKK [FAM9B] | 4.23 ± 0.45 | 4.66 ± 0.3 |  |  |
| RLIRKMFSFKVSRWMGLACFRSLA [CCDC70] | 2.35 ± 0.46 | 2.29 ± 0.45 |  |  |

From the supplement of paper PMC10567573
